Measurements from IntAct's records for PubMed 21946561.

B1: Neuronal tyrosine-phosphorylated phosphoinositide-3-kinase adapter 1 (Mus musculus), Q6PFX7 (parent)
chain: MNLLYRKTKLEWRQHKEEEAKRSSSKEAAPTGPVGPGAVPGPGVRVRDIASLRRSLRMGFMTMPASQEHTPHPCRSTMAPRSLSCHSVGSMDSVGGGPGGGLTEDSSTRRPPAKPRRHPSTKLSMAGPGAETPPSKKAGSQKPAPECRESSRKVPPQKPRRSPNTQLSVSFDESCAPAPSPRGANLPLQRLSRASRITGDLDAGAQEEEPVYIEMVGDVFRGGGRSGGGLAGPPLGSGGPTPPAAADSDSEDSEAIYEEMKYPLPEEAGDGRANGPPPLTAPSPPQQTHILQPHPHPHRRPASALPSRRDGTPTKTTPCEIPPPFPNLLQHRPPLLAFPQAKSASRAPGDGVSRLPVLCHSKEPAGSTPAPQVPARERETPPLPPPPPAANLLLLGPSGRARSHSTPLPPQGSGQTRGERELPNSHSMICPKAAGVPAAHPAPAALLPGPPKDKAVSYTMVYSAVKVTTHSVLPAGPPLGVGEPKTEEISVLHGMLCASSRPPVPGKSSPHSGAMGSAAGVLHHRSCLASPHSLPDPTGGSLTPLWTYPATAAGLKRPPAYDSLKAGGVLNKGCGMGAPSPMVKIQLQEQGTDGGAFASISCAHVIASAGTPEEEEEMGAAFGAGWALQRKVLYGGRKAKEVDTEEDGARAWNGSTEGPGKVEHEDRGPVPSGIPVRSQGAEGLLARIHHDRGGSRTALPVPCQTFPACHRNGDFTGGYRLGRSASTSGVRQAALHTPRPCSQPRDALSQTHPVLPLPLPPQPARERDGKLLEVIERKRCVCKEIKARHRPDRGLCKQESMPILPSWRRVPEPRKSGTPPCRRQHTVLWDTAI
B2: Neuronal tyrosine-phosphorylated phosphoinositide-3-kinase adapter 2 (Mus musculus), Q8BM65-4 (parent)
chain: MIPSKMMSANPEEDPLDTFFQYIEDMGMKAYDGLVIQNASDIARENDRLRNETKLAYLKEKNEKRRRQEETIKRIGGEVGRGQDASYAGKHFRMGFMTMPAPQDRLPHPCSSGFTVRSQSLHSVGGTEDDSSCGSRRQPPPKPKRDPSTKLSTSSETVNSTAASKSGRSLERAEGKFTVPASHSPPRASTSGHLFPSPGSQERNIKVSAKPRPHSDEYSKKIPPPKPKRNPNTQLSTSFDETYIKKHVPRRTSLPRDSSLSQVCSPAADPEEEEPVYIEMVGNILRDFRKEEDDQSEAVYEEMKYPIFDDLGHDSKCDFDHHSCSSQCATPTVPDLDFVKSSGPCTPKGLLCDIPPPFPNLLSHRPPLLVFPPAPVHCSPNSDESPLTPLEVTKLPVLENVSYMKQPPGACPSSLPSHGSSHAKDQTGALGPAPGASILSSSPPPPSTLYRTQSPHGYPKSHSTSPSPVSMGRSLTPLSLKRPPPYDAVHSGSLSRSSSSVPHTTPRPVSQDGAKMVNAAVNTYSAAQSGSRSRTPTSPLEELTSLFTSGRSLLRKSSSGRRSKEPAEKSTEELKVRSHSTEPLPKLDSKERGHYGSSSSREPVKAQEWDGTPGPPVVTSRMGRCSVSPTLLAGNHSSEPKVSCKLGRSASTSGVPPPSVTPLRQASDLQQSQVACMQWFHGDHTMLEMIEKKRCLCKEIKARQKTEKGLCKQDSMPILPSWKKNAGAKKYSPPPYSKQQTVFWDTAI

Variants of: B1
Conditions: with p85a_human PIK3R1, P27986
Target sequence in this assay (P27986 whole entry): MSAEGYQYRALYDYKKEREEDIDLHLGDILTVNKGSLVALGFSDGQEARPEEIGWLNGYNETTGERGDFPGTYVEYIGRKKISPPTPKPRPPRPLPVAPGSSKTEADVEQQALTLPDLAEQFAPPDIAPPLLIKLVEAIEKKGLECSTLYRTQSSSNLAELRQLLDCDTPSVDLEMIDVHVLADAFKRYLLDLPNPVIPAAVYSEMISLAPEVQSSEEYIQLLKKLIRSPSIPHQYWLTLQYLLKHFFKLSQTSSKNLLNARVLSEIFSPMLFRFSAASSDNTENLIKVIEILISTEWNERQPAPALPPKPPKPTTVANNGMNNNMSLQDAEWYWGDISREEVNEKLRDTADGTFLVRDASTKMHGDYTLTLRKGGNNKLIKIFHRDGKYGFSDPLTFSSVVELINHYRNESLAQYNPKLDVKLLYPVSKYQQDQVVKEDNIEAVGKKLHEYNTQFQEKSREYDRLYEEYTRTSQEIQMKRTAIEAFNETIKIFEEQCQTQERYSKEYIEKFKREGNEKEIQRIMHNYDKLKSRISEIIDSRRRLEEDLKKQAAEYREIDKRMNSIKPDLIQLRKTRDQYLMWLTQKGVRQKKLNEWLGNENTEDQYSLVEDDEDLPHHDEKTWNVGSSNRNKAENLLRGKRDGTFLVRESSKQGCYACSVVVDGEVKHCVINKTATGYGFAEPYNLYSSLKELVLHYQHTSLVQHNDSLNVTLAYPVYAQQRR

| effect of a mutation on the interaction | Variant |
| --- | --- |
| disrupting interaction | Y257F |
| disrupting interaction | Y212F |

Variants of: B1
Conditions: with p85a_human PIK3R1, P27986
Remark: another data set of the same source
Target sequence in this assay (P27986 whole entry): as above

| effect of a mutation on the interaction | Variant |
| --- | --- |
| decreasing interaction | Y257F |

Variants of: B2
Conditions: with p85a_human PIK3R1, P27986
Target sequence in this assay (P27986 whole entry): as above

| effect of a mutation on the interaction | Variant |
| --- | --- |
| disrupting interaction | Y277F |
| disrupting interaction | Y300F |
